This note sets out measurements from the supplement of paper PMC9170038.

In data set [1] the test system is MS2 coat protein. The experiment in a line: apparent KD of MS2 coat protein; designed switch direction (-1 OFF switch, 1 ON switch): 1; higher = weaker reporter binding. To be noted: Eterna round: R98. As for the experimental part: (§1)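 RNA-MaP: designed FMN/MS2 RNA switches (84 nt design region) are transcribed on-chip within common flanks and titrated with SNAP-549-labelled MS2 coat protein (about 1-3000 nM) in 100 mM Tris pH 7.5, 80 mM KCl, 4 mM MgCl2, without or with 200 uM FMN. Median apparent KD per design; activation ratio = KD,OFF / KD,ON.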

Data set [2] has as its system MS2 coat protein. The experiment in a line: apparent KD of MS2 coat protein; higher = weaker reporter binding. Conditions: Eterna round: R101. As for the experimental part: as §1

Take “AAAACAUGAGGAUCACCCAUGUAAAGAACGGUUAAUAAAAGUGAGGAUAUACAAAAUUUUAUAUAGUAGAAGGCACUGGGUACA [JR_SSNG3_Sub008]”: the “apparent KD of MS2 coat protein” value in the data set with MS2 coat protein [1] (input ligand: FMN 200 uM) stood at 23.9 nM; in the data set on MS2 coat protein [1] (input ligand: none), 20.6 nM.

“AAAGAUUUUUAAGGAUAUCAGUGGCAAAGCCACUGAGAAGGUGAGGAUCACCCACCUACGUGACCCUGGAAACAGGGUCACGAA [#SharedSequence - ExNG1-14] (puzzle (switch architecture): Exclusion NG 1)”: the “apparent KD of MS2 coat protein” value worked out at 14.7 nM in the data set with MS2 coat protein [2] (input ligand: FMN 200 uM) and 13.2 nM with MS2 coat protein [2] (input ligand: none).

With “AAAUAAAUUGAAGGAUAUGACCCUCGAGGUGACUAAAAGUCACCUCGAGGGUCAGAAGGUCGAGGAUCACCCGACCUAAAUAAA [#SharedSequence SLExNG1: 4-1] (puzzle (switch architecture): Small Loop Exclusion NG 1)”, the “apparent KD of MS2 coat protein” value was determined as 8.19 nM in the data set with MS2 coat protein [2] (input ligand: FMN 200 uM) and 7.16 nM in the data set with MS2 coat protein [2] (input ligand: none).

For the sequence “AAGAAGCUCACAGGAUAUCAGUAUAUGCUAUCUAGCGUAUUAAUGAACUGCUGAGAAGGGUGAGACAUGAGGAUCACCCAUGUA [Angeon] (puzzle (switch architecture): Small Loop Same State NG 1)”, the “apparent KD of MS2 coat protein” value with MS2 coat protein [2] (input ligand: FMN 200 uM) is 54 nM; in the data set on MS2 coat protein [2] (input ligand: none) it was 120 nM.

“AAUAAACAAUAAAAGACUGGAGCAAACUUUUGAGGAUCACCCAGAAGGCGUCACCUAAUAGGUGACGAGGAUAUGGAGCUCCAG [#SharedSequence IExNG# - 4] (puzzle (switch architecture): Inverted Exclusion NG 3)”: the “apparent KD of MS2 coat protein” value with MS2 coat protein [2] (input ligand: FMN 200 uM) is 135 nM; in the data set on MS2 coat protein [2] (input ligand: none), 17.3 nM.

“AAUAAUUCUCAAGGAUAUCAGUGGCAAAGCCACUGAGAAGGUGAGGAUCACCCACCUACGUGACGCUGGAAACAGCGUCACGAA [#SharedSequence ExNG1 - 34] (puzzle (switch architecture): Exclusion NG 1)”: the “apparent KD of MS2 coat protein” value in the data set with MS2 coat protein [2] (input ligand: FMN 200 uM) is 164 nM; in the data set with MS2 coat protein [2] (input ligand: none), 30.5 nM.

With “ACACGUCGUGAGAAGGAGGAUCACCCUUUCGAAAGAAAUAGCCACCGUGAAAACGGUGGCAAAUCCUAGGAUAUCACGACGUGA [#SharedSequence - IExNG2: 4] (puzzle (switch architecture): Inverted Exclusion NG 2)”, the “apparent KD of MS2 coat protein” value stood at 41.8 nM in the data set with MS2 coat protein [2] (input ligand: FMN 200 uM) and 551 nM in the data set with MS2 coat protein [2] (input ligand: none).

For the sequence “ACAGGUCGUGAGAAGGAGAGUGGCACCGUCGAAAGACGGUGCAACUAGAAACCUAGAGGAUCACCCUAGGAUAUCACGACCUGA [#SharedSequence - IExNG2: 11] (puzzle (switch architecture): Inverted Exclusion NG 2)”, the “apparent KD of MS2 coat protein” value amounted to 6.46 nM with MS2 coat protein [2] (input ligand: FMN 200 uM) and 6.32 nM in the data set on MS2 coat protein [2] (input ligand: none).

For the sequence “ACAUACUUUCGAGGAUAUCGGUGAUAAAUUUGACGAGAAGGCGAUAAAAGAUAUAAUCUUAUAGACAUGAGGAUCACCCAUGUA [JR_SSNG1_Sub015]”, the “apparent KD of MS2 coat protein” value in the data set with MS2 coat protein [1] (input ligand: FMN 200 uM) amounted to 36.8 nM; in the data set with MS2 coat protein [1] (input ligand: none), 43.3 nM.

As to “AGAACAUGAGGAUCACCCAUGUUAAGGUCGGUAAAUAAGGGUGAGGAUAUGCUUAAAAUAAGGUAGCAGAAGGUGCUUGGUGCA [SameState #76 NG3]”, the “apparent KD of MS2 coat protein” value in the data set on MS2 coat protein [1] (input ligand: FMN 200 uM) is 146 nM; in the data set with MS2 coat protein [1] (input ligand: none), 163 nM.

For the sequence “CACACAUGAGGAUCACCCAUGUCGUGGGCGGAAAACUGUGCACAGGAUAUGGUGAGGGCAACUCACCAGAAGGGUGGUCAGGAA [Zaenen]”, the “apparent KD of MS2 coat protein” value in the data set on MS2 coat protein [1] (input ligand: FMN 200 uM) was found to be 63.1 nM; with MS2 coat protein [1] (input ligand: none) it was 100 nM.

With “CACACAUGGUGAGGAUAUGCAAAGGAUCACCUUGUAGAAGGCAUCAGGGUAGAAGGUGCAAGGAUCACCUGUAAGGAUAUAUCC [pwkr2 ssNG1 DX.24]”, the “apparent KD of MS2 coat protein” value in the data set on MS2 coat protein [1] (input ligand: FMN 200 uM) amounted to 395 nM; with MS2 coat protein [1] (input ligand: none) it was 1210 nM.

For “CACCUAAAUCCUAGAGGAUCACCCUAGGAUAUCACCGUCGAGGUGCCAUAAUGGCACCUCGACGGUGAGAAGGAGGGUAAAUAA [#SharedSequence - SLExNG3: 9] (puzzle (switch architecture): Small Loop Exclusion NG 3)”, the results for the “apparent KD of MS2 coat protein” value in the data set on MS2 coat protein [2] (input ligand: FMN 200 uM) and with MS2 coat protein [2] (input ligand: none) were 6.41 nM and 5.82 nM, respectively.

In the case of “CACGUCCACACAGGAUAUGCUGGACUUUGUCCAGCAGAAGGGUGACAACAUGAGGAUCACCCAUGUAGGACGUGUAUAUUUAAG [Mat - Same State NG 1 - Eli mod - D100]”, the figures for the “apparent KD of MS2 coat protein” value in the data set on MS2 coat protein [1] (input ligand: FMN 200 uM) and in the data set with MS2 coat protein [1] (input ligand: none) were 188 nM and 2090 nM, respectively.

For the sequence “CAGCAAUUCUUAGGAUAUGCUCAGGAAUACUGAGCAGAAGGAAGAUAUACCUGAGGAUCACCCAGGUUAAACUGAAGCUGAAAA [Same State NG1 - A3C, U17G Submission 7A]”, the “apparent KD of MS2 coat protein” value in the data set with MS2 coat protein [1] (input ligand: FMN 200 uM) is 28.5 nM; in the data set with MS2 coat protein [1] (input ligand: none) it was 21.2 nM.
